This note sets out measurements from WO2025026282A1 (dated 2025).

As a reminder, the Kd is the concentration at which binding is half-saturated. The low end stands for higher affinity, the high end for lower affinity.

In one experiment the target is human CD64 (human, UniProt P12314 16-292, limits assumed). The experiment is described as follows: BLI (Octet), human CD64. (BLI is a label-free optical method that tracks binding on a fibre tip over time.)
The next experiment deals with T1, human CD32 alpha (human, UniProt P12318 34-217, limits assumed).
T1 construct: also called FcgammaRII
T1 sequence (looked up): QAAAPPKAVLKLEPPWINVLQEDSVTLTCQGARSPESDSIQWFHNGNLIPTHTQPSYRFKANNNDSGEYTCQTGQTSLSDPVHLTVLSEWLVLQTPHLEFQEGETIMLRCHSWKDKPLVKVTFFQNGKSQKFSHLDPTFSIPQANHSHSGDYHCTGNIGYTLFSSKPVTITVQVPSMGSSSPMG
The experiment is described as follows: BLI (Octet), human CD32 alpha.

Sequence of human CD64 (P12314 16-292 limits assumed): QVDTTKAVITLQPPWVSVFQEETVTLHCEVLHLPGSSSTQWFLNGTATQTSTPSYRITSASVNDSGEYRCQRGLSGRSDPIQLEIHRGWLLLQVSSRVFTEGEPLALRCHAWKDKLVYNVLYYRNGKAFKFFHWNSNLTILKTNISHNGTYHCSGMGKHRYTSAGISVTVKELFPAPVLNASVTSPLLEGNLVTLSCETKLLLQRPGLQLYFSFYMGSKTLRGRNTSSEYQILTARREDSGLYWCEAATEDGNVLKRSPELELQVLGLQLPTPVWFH

B1: 12A39 (2:1:1 asymmetric tri-specific antibody, Type E structure, CEA x CD3 x PD-L1) (other)
chain 1: QAVVTQEPSLTVSPGGTVTLTCRSSTGAVTTSNYANWVQQKPGQAPRGLIGGTNKRAPWTPARFSGSLLGGKAALTLSGAQAEDEADYYCALWYSNLWVFGGGTKLTVLRTVAAQVQLVQSGAEVKKPGSSVKVSCKTSGDTFSSYAISWVRDAPGQCLEWMGGIIPIFGKAHYAQKFQGRVTITADESTSTAYMELSSLRSEDTAVYFCARKFHFVSGSPFGMDVWGQGTTVTVSSASEPKSSDKTHTCPPCPAPPVAGPSVFLFPPKPKDTLMISRTPEVTCVVVDVSQEDPEVKFNWYVDGVEVHNAKTKPREEQFNSTYRVVSVLTVLHQDWLNGKEYKCKVSNKGLPSSIEKTISKAKGQPREPQVYTLPPSRDELTKNQVSLWCLVKGFYPSDIAVEWESNGQPENNYKTTPPVLDSDGSFFLYSKLTVDKSRWQQGNVFSCSVMHEALHNHYTQKSLSLSP
chain 2: EVQLVESGGGLVQPGGSLRLSCAASGFTFTDYYMNWVRQAPGKALEWLGFIRNKVNGDTTEYAASVKGRFTISRDDSKNSLYLQMNSLKTEDTAVYYCARDKGIAYYFDYWGQGTLVTVSSASTKGPSVFPLAPSSKSTSGGTAALGCLVKDYFPEPVTVSWNSGALTSGVHTFPAVLQSSGLYSLSSVVTVPSSSLGTQTYICNVNHKPSNTKVDKKVEPKSCDGGGGSGGGGSEIVLTQSPATLSLSPGERATLSCRASQSVSSYLAWYQKKPGQAPRLLIYDASNRATGIPARFSGSGSGTDFTLTISSLEPEDFAVYYCQQRSNWPTFGCGTKVEIKRTVAAEVQLVESGGGLVQPGGSLRLSCAASGFTFSTYAMNWVRQAPGKGLEWVGRIRSKYNNYATYYADSVKGRFTISRDDSKNSLYLQMNSLRAEDTAVYYCVRHGNFGTSYVSWFAYWGQGTLVTVSS
heavy: EVQLVESGGGLVQPGGSLRLSCAASGFTFTDYYMNWVRQAPGKALEWLGFIRNKVNGDTTEYAASVKGRFTISRDDSKNSLYLQMNSLKTEDTAVYYCARDKGIAYYFDYWGQGTLVTVSSASTKGPSVFPLAPSSKSTSGGTAALGCLVKDYFPEPVTVSWNSGALTSGVHTFPAVLQSSGLYSLSSVVTVPSSSLGTQTYICNVNHKPSNTKVDKKVEPKSCDKTHTCPPCPAPPVAGPSVFLFPPKPKDTLMISRTPEVTCVVVDVSQEDPEVKFNWYVDGVEVHNAKTKPREEQFNSTYRVVSVLTVLHQDWLNGKEYKCKVSNKGLPSSIEKTISKAKGQPREPQVYTLPPSRDELTKNQVSLSCAVKGFYPSDIAVEWESNGQPENNYKTTPPVLDSDGSFFLVSKLTVDKSRWQQGNVFSCSVMHEALHNRFTQKSLSLSP
light: EIVLTQSPATLSASPGERATLSCRASQSVSYIHWYQQKPGQSPRPWIHGTSNLATGVPARFSGSGSGTDFTLTISSLEPEDAAVYYCQQWSSNLSTFGGGTKVEIKRTVAAPSVFIFPPSDEQLKSGTASVVCLLNNFYPREAKVQWKVDNALQSGNSQESVTEQDSKDSTYSLSSTLTLSKADYEKHKVYACEVTHQGLSSPVTKSFNRGEC
notes: Tri-specific antibody; also called polypeptide complex 12A39
With B1, in the experiment with human CD64, the binding result is listed as “binds”. This molecule showed a dissociation constant Kd in the experiment with human CD32 alpha of about 527 nM.
